Test [1] has as its target TGF-β type II receptor (TβRII) on HEK-293 CAGA-Luc TGF-β reporter cells (UniProt P37173 23-567, limits assumed). The test can be described thus: cell-based or functional assay.
Test [2] addresses T1, TGF-β type II receptor (TβRII) (UniProt P37173 38-159).
T1 construct: A purified protein was injected in ITC and run on native gels; also called TbRII; transforming growth factor-β type II receptor
The test can be described thus: ITC, TβRII injected into the monomer, three replicates globally fit to a 1:1 model. The text has this: (§1) FIG. 5: Binding of the engineered TGF-beta monomers (mmTGF-β2-7M, left; mmTGF-β2-7M2R, middle; and mmTGF-β2-2M-Del7-16, right) to the TGF-β type II receptor (TβRII) as detected by isothermal titration calorimetry (ITC). Upper panels depict the raw thermograms for three replicate titrations, while the lower panels depict the integrated heat (data points) for the three replicate titrations globally fit to a 1:1 binding isotherm (smooth line).
(§2) In order to evaluate the ability of the mmTGF-β2-7M variants described herein (mmTGF-β2-7M2R (SEQ ID NO: 4), mmTGF-β2-2M-Del7-16 (SEQ ID NO: 5), and mmTGF-β2-7M-PRDC (SEQ ID NO: 7)) to bind TβRII, isothermal titration calorimetry (ITC) and native gels were used. The ITC binding experiments were performed by injecting increasing amounts of TβRII into mmTGF-β2-7M2R (SEQ ID NO: 4) or mmTGF-β2-2M-Del7-16 (SEQ ID NO: 5), with mmTGF-β2-7M (SEQ ID NO: 3) used a reference control. These titrations yielded readily detectable isotherms with a large negative enthalpy and a near 1:1 binding stoichiometry (FIG. 5).
(In ITC the heat of successive injections is recorded.)

Test [3] addresses T1, TGF-β type II receptor (TβRII). Put plainly: ITC; TβRII injected into the monomer; three replicate titrations globally fit to a 1:1 binding isotherm.
From the text: as §1, §2

Substitutions are numbered along the chain they refer to. Names and notes keep the numbering of the source.

As usually defined, the Kd is the equilibrium constant for the complex coming apart. Lower therefore signals higher affinity.

T1 sequence (P37173 38-159 limits assumed): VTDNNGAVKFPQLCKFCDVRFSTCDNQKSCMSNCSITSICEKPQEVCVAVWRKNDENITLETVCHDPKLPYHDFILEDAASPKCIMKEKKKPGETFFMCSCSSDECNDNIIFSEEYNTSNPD
Sequence of TGF-β type II receptor (TβRII) on HEK-293 CAGA-Luc TGF-β reporter cells (P37173 23-567 limits assumed): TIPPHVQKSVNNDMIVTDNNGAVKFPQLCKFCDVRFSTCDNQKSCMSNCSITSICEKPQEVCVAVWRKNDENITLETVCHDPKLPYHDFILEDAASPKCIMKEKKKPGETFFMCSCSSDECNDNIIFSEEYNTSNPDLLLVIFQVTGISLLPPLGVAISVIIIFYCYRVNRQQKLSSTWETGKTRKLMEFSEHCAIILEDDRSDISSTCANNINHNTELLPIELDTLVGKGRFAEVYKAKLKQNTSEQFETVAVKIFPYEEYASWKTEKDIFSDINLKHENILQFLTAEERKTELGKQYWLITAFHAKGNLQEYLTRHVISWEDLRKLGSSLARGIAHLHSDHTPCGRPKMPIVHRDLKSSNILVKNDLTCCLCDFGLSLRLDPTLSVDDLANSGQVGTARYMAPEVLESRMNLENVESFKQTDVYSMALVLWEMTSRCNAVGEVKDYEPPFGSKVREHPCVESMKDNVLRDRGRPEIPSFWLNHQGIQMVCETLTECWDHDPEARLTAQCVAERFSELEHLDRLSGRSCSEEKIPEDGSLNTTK

B1: mmTGF-β2-7M (ligand)
chain: ALDAAYCFRNVQDNCCLRPLYIDFRKDLGWKWIHEPKGYNANFCAGACPYRASKSPSCVSQDLEPLTIVYYVGRKPKVEQLSNMIVKSCKCS
notes: also called engineered human TGF-β2 monomer mmTGF-β2-7M; mmTGF-B27M
As for B1, the “IC50, HEK-293 CAGA-Luc TGF-β reporter assay, stimulation with 10 pM TGF-β3” value (“IC50 … with 10 pM TGF-β3” for short) in test [1] turned out to be 58.2 nM. The molecule also yielded a dissociation constant Kd in test [2] of 60.5 nM. In test [3], this molecule showed a ΔG of -9.85 kcal/mol, a ΔH of -4.63 kcal/mol and a ΔS of 17.5 cal/mol•K.

B2: mmTGF-β2-7M2R (ligand)
chain: B1 chain with S57R, V59R
As for B2, the “IC50 … with 10 pM TGF-β3” value in test [1] was 53.3 nM. The equilibrium dissociation constant (Kd) in test [2] came to 75.1 nM. In test [3], this molecule yielded a ΔG of -10.1 kcal/mol, a ΔH of -10.5 kcal/mol and a ΔS of -1.44 cal/mol•K.

B3: mmTGF-β2-2M-Del7-16 (ligand)
chain: B1 chain with C7V, C16A, K26R, V69L, V72I, K75T, V78I
Consider B3, for which, in test [1], the “IC50 … with 10 pM TGF-β3” value came out at 111 nM. Besides, in test [2], the Kd came to 80.1 nM. Besides, in test [3], the ΔG was -10 kcal/mol and the ΔH was -7.67 kcal/mol.

B4: mmTGF-β2-7M-PRDC (ligand)
chain: KEVLASSQEALVVTERKYLKSDWCKLRPLYIDFRKDLGWKWIHEPKGYNANFCYGQCNSFYIPRHVKKEEDSFQSSAFCVSQDLEPLTIVYYVGRKPKVEQLSNMIVKSCRCMSV
For the molecule B4, in test [1], the “IC50 … with 10 pM TGF-β3” value was found to be 282 nM and the “fold change of IC50 relative to mmTGF-β2-7M, HEK-293 CAGA-Luc TGF-β reporter assay” value is roughly 5 fold.

Values taken from US20240425559A1 (UNIVERSITY OF PITTSBURGH OF THE COMMONWEALTH SYSTEM OF …, published 2024).
